Results as given in PMC9436414.

B1: DadA (Escherichia coli K-12) (protein)
chain: MRVVILGSGVVGVASAWYLNQAGHEVTVIDREPGAALETSAANAGQISPGYAAPWAAPGVPLKAIKWMFQRHAPLAVRLDGTQFQLKWMWQMLRNCDTSHYMENKGRMVRLAEYSRDCLKALRAETNIQYEGRQGGTLQLFRTEQQYENATRDIAVLEDAGVPYQLLESSRLAEVEPALAEVAHKLTGGLQLPNDETGDCQLFTQNLARMAEQAGVKFRFNTPVDQLLCDGEQIYGVKCGDEVIKADAYVMAFGSYSTAMLKGIVDIPVYPLKGYSLTIPIAQEDGAPVSTILDETYKIAITRFDNRIRVGGMAEIVGFNTELLQPRRETLEMVVRDLYPRGGHVEQATFWTGLRPMTPDGTPVVGRTRFKNLWLNTGHGTLGWTMACGSGQLLSDLLSGRTPAIPYEDLSVARYSRGFTPSRPGHLHGAHS
B2: BhcA (Paracoccus denitrificans PD1222) (protein)
chain: MTSQNPIFIPGPTNIPEEMRKAVDMPTIDHRSPVFGRMLHPALEGVKKVLKTTQAQVFLFPSTGTGGWETAITNTLSPGDKVLAARNGMFSHRWIDMCQRHGLDVTFVETPWGEGVPADRFEEILTADKGHEIRVVLATHNETATGVKSDIAAVRRALDAAKHPALLFVDGVSSIGSMDFRMDEWGVDIAVTGSQKGFMLPPGLAIVGFSPKAMEAVETARLPRTFFDIRDMATGYARNGYPYTPPVGLINGLNASCERILAEGLENVFARHHRIASGVRAAVDAWGLKLCAVRPELYSDSVSAIRVPEGFDANLIVSHALETYDMAFGTGLGQVAGKVFRIGHLGSLTDAMALSGIATAEMVMADLGLPIQLGSGVAAAQEHYRQTTAAAQKKAA

Legend:
Experiment in all cases: purified protein
purified protein [1] = substrate: C[C@@H](N)C(=O)O; conditions: 200 mM HEPES/KOH pH 7.5, 0.1 mM DCPIP, 1.5 mM PES, 10 mM KCN, 37 °C, pH 7.5
purified protein [2] = substrate: N[C@H](CO)C(=O)O; conditions: DCPIP-coupled assay, 37 °C, exact D-serine reaction mix not stated
purified protein [3] = substrate: N[C@@H](CO)C(=O)O; conditions: 7 mM oxaloacetate as acceptor, 50 mM HEPES/KOH pH 7.5, 37 °C, pH 7.5
purified protein [4] = substrate: O=C(O)CC(=O)C(=O)O; conditions: 100 mM serine as amine donor, 50 mM HEPES/KOH pH 7.5, 37 °C, pH 7.5

Protein	Km (purified protein [1])	kcat (purified protein [1])	kcat/Km (purified protein [1])	Km (purified protein [2])	kcat (purified protein [2])	kcat/Km (purified protein [2])	Km (purified protein [3])	kcat (purified protein [3])	Km (purified protein [4])	kcat (purified protein [4])	kcat/Km (purified protein [4])
B1	1.26 ± 0.26 mM	0.81 s⁻¹	642 M⁻¹ s⁻¹	64.77 ± 9.28 mM	0.37 s⁻¹	5.71 M⁻¹ s⁻¹	–	–	–	–	–
B2	–	–	–	–	–	–	7 mM	25.9 s⁻¹	0.23 ± 0.03 mM	31.2 s⁻¹	140000 M⁻¹ s⁻¹
